Experimental data: IntAct's records for PubMed 31515488

B1: Elongin-A2 (Homo sapiens), Q8IYF1 (parent)
chain: MAAGSTTLHAVEKLQVRLATKTEPKKLEKYLQKLSALPMTADILAETGIRKTVKRLRKHQHVGDFARDLAARWKKLVLVDRNTRPGPQDPEESASRQRFGEALQDQEKAWGFPENATAPRSPSHSPEHRRTARRTPPGQQRPHPRSHSREPRAERKCPRIAPADSGRYRASPTRTAPLRMPEGPEPAAPGKQPGRGHTHAAQGGPLLCPGCQGQPQGKAVVSHSKGHKSSRQEKRPLCAQGDWHSPTLIREKSCGACLREETPRMPSWASARDRQPSDFKTDKEGGQAGSGQRVPALEEAPDSHQKRPQHSHSNKKRPSLDGRDPGNGTHGLSPEEKEQLSNDRETQEGKPPTAHLDRTSVSSLSEVEEVDMAEEFEQPTLSCEKYLTYDQLRKQKKKTGKSATTALGDKQRKANESKGTRESWDSAKKLPPVQESQSERLQAAGADSAGPKTVPSHVFSELWDLSEAWMQANYDPLSDSDSMTSQAKPEALSSPKFREEAAFPGRRVNAKMPVYSGSRPACQLQVPTLRQQCAQVLRNNPDALSDVGEVPYWVLEPVLEGWRPDQLYRRKKDNHALVRETDELRRNHCFQDFKEEKPQENKTWREQYLRLPDAPEQRLRVMTTNIRSARGNNPNGREAKMICFKSVAKTPYDTSRRQEKSAGDADPENGEIKPASKPAGSSHTPSSQSSSGGGRDSSSSILRWLPEKRANPCLSSSNEHAAPAAKTRKQAAKKVAPLMAKAIRDYKRRFSRR
partner: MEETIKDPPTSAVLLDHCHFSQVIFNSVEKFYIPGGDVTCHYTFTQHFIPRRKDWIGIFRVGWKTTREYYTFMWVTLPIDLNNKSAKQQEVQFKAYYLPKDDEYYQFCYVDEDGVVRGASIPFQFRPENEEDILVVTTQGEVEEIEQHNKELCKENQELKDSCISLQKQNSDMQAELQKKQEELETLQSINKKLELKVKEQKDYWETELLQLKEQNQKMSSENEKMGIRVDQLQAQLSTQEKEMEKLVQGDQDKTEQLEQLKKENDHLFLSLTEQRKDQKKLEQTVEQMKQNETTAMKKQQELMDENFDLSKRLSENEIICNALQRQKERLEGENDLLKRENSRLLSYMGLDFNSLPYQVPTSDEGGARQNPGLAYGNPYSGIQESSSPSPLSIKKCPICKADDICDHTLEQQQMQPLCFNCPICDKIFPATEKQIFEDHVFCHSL
B2: TBC1 domain family member 5 (Homo sapiens), Q92609 (parent)
chain: MYHSLSETRHPLQPEEQEVGIDPLSSYSNKSGGDSNKNGRRTSSTLDSEGTFNSYRKEWEELFVNNNYLATIRQKGINGQLRSSRFRSICWKLFLCVLPQDKSQWISRIEELRAWYSNIKEIHITNPRKVVGQQDLMINNPLSQDEGSLWNKFFQDKELRSMIEQDVKRTFPEMQFFQQENVRKILTDVLFCYARENEQLLYKQGMHELLAPIVFVLHCDHQAFLHASESAQPSEEMKTVLNPEYLEHDAYAVFSQLMETAEPWFSTFEHDGQKGKETLMTPIPFARPQDLGPTIAIVTKVNQIQDHLLKKHDIELYMHLNRLEIAPQIYGLRWVRLLFGREFPLQDLLVVWDALFADGLSLGLVDYIFVAMLLYIRDALISSNYQTCLGLLMHYPFIGDVHSLILKALFLRDPKRNPRPVTYQFHPNLDYYKARGADLMNKSRTNAKGAPLNINKVSNSLINFGRKLISPAMAPGSAGGPVPGGNSSSSSSVVIPTRTSAEAPSHHLQQQQQQQRLMKSESMPVQLNKGLSSKNISSSPSVESLPGGREFTGSPPSSATKKDSFFSNISRSRSHSKTMGRKESEEELEAQISFLQGQLNDLDAMCKYCAKVMDTHLVNIQDVILQENLEKEDQILVSLAGLKQIKDILKGSLRFNQSQLEAEENEQITIADNHYCSSGQGQGRGQGQSVQMSGAIKQASSETPGCTDRGNSDDFILISKDDDGSSARGSFSGQAQPLRTLRSTSGKSQAPVCSPLVFSDPLMGPASASSSNPSSSPDDDSSKDSGFTIVSPLDI
B3: Pre-B-cell leukemia transcription factor 4 (Homo sapiens), Q9BYU1 (parent)
chain: MAAPPRPAPSPPAPRRLDTSDVLQQIMAITDQSLDEAQARKHALNCHRMKPALFSVLCEIKEKTVVSIRGIQDEDPPDAQLLRLDNMLLAEGVCRPEKRGRGGAVARAGTATPGGCPNDNSIEHSDYRAKLSQIRQIYHSELEKYEQACREFTTHVTNLLQEQSRMRPVSPKEIERMVGAIHGKFSAIQMQLKQSTCEAVMTLRSRLLDARRKRRNFSKQATEVLNEYFYSHLNNPYPSEEAKEELARKGGLTISQVSNWFGNKRIRYKKNMGKFQEEATIYTGKTAVDTTEVGVPGNHASCLSTPSSGSSGPFPLPSAGDAFLTLRTLASLQPPPGGGCLQSQAQGSWQGATPQPATASPAGDPGSINSSTSN
partner: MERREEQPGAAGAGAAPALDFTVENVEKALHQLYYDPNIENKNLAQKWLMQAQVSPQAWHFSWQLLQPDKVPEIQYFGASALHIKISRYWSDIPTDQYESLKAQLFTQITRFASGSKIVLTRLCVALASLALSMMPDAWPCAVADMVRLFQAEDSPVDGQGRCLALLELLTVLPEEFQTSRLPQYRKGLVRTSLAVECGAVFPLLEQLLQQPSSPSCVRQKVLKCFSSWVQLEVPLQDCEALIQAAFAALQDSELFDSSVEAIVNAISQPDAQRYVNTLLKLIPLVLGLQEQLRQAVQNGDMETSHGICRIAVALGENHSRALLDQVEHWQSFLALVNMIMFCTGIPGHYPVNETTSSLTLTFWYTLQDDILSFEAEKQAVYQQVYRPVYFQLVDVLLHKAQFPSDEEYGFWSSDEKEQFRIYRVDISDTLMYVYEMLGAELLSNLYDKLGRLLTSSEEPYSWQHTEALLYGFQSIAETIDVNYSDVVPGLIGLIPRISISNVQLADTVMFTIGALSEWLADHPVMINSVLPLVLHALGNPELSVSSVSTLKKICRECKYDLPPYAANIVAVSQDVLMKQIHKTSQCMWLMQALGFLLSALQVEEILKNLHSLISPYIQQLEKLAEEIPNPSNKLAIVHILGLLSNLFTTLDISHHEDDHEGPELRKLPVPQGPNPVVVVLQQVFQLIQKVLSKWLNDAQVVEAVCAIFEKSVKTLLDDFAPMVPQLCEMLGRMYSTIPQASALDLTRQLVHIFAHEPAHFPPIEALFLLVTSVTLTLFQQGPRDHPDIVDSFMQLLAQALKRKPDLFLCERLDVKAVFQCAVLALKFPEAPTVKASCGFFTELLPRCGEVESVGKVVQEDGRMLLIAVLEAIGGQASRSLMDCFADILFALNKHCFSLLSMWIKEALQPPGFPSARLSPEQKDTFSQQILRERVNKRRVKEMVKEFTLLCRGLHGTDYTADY

Variants of: B1
Conditions: with caco2_human CALCOCO2, Q13137

R498Q was tested. Which “effect of a mutation on the interaction” value did it give?
The value was “with no effect”.

Variants of: B2
Conditions: with ap2m1_human AP2M1, Q96CW1
Chain of ap2m1_human AP2M1, Q96CW1 (Q96CW1 whole entry): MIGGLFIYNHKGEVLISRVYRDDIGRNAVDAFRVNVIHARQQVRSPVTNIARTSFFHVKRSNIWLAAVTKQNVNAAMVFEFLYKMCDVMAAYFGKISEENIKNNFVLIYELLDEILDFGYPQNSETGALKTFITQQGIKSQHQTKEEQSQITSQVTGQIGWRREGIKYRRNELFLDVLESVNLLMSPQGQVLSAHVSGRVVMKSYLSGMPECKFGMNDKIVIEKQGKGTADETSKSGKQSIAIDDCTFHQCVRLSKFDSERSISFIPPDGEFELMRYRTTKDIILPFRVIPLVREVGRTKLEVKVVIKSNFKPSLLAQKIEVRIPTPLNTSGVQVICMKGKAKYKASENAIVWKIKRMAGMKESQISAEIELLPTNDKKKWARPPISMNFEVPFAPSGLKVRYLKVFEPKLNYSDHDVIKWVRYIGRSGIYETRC

How did the “effect of a mutation on the interaction” value turn out when Y375C was run?
Its value is “with no effect”.

Variants of: B3
Conditions: with ipo13_human IPO13, O94829

T283M was tested. Which “effect of a mutation on the interaction” value did it give?
The value was “with no effect”.

For T154M, which “effect of a mutation on the interaction” value is on record?
The value was “with no effect”.

R327Q was tested. Which “effect of a mutation on the interaction” value did it give?
Its value is “with no effect”.
